# Patent US20150152166A1 (THERACLONE SCIENCES, published 2015)
# Key:
# [1] = target: GPCMV gB (glycoprotein B of guinea pig CMV strain V545/82) (guinea pig cytomegalovirus); experiment: cell-based or functional assay
# [2] = target: T1, CMV gp116 epitope AD2 site peptide SHRANETIYNTTLKYGDTTGTNTTK (CMV (human cytomegalovirus), not fully specified); experiment: kinetic affinity measurement, method not stated; antigen taken as CMV gp116 AD2 peptide
# T1 construct: Synthetic polypeptide corresponding to the AD2 site of gp116 (glycoprotein B); A biotinylated form was used to select B cells; also called CMV gp116 AD2 peptide
# T1 peptide: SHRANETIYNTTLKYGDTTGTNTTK
# [3] = target: T1, CMV gp116 epitope AD2 site peptide …; experiment: kinetic affinity measurement, method not stated; antigen taken as AD2 peptide; same value as r13, table re-sorted by koff
# [4] = target: T1, CMV gp116 epitope AD2 site peptide …; experiment: kinetic affinity measurement, method not stated; antigen taken as AD2 peptide; same value as r9, table re-sorted by koff
# [5] = target: T1, CMV gp116 epitope AD2 site peptide …; experiment: kinetic affinity measurement, method not stated; antigen taken as AD2 peptide; same value as r8, table re-sorted by koff
# [6] = target: T1, CMV gp116 epitope AD2 site peptide …; experiment: kinetic affinity measurement, method not stated; antigen taken as AD2 peptide; same value as r12, table re-sorted by koff
Binder,neutralization of GPCMV V545/82 entry into JH4 cells; highest concentration tested without effect [1],Kd [2],koff [2],kon [2],Kd [3],koff [3],kon [3],Kd [4],koff [4],kon [4],Kd [5],koff [5],kon [5],Kd [6],koff [6],kon [6]
"2N9 human anti-CMV antibody (antibody, V domains shown, Recombinant human IgG, gamma heavy and kappa light chain; (MDMR); If the listing entry has two more residues, the range shifts by 2; also called TCN-202; mAb C-2N9) VH: QVQLVESGGGVVQPGRSLRLSCAASGFTFSSNGIHWVRQAPGKGLDWVAVISSDANDKQYADSVKGRFTISRDNSKNMVYLQMNSLRVEDTAVYFCARDGTCSGGNCYSGLIDYWGRGILVTVSS VL: EIVLTQSPATLSLSPGERATLSCRASQSVGGYLAWYQQKPGQAPRLLIYDASIRATGIPARFSGSGSGTDFTLTISSLEPEDFAVYYCHQRSNWPPLTFGGGTKVDIKR",> 300 ng/mL,11.6 nM,0.03 s⁻¹,2.6e+06 M⁻¹ s⁻¹,11.6 nM,0.03 s⁻¹,2.6e+06 M⁻¹ s⁻¹,–,–,–,–,–,–,–,–,–
"5P9 human anti-CMV antibody (antibody, V domains shown, Recombinant human IgG, gamma heavy and kappa light chain; also called mAb E-5P9) VH: QVQLVESGGGVIQPGRSLRLSCVASKFIFSNHGIHWVRQAPGKGLEWVAVISKDGTNAHYADSVRGRFSISRDNSKDTVFLEMRSLRPEDTAVYYCAREGRCIEEKCYSGQIDYWGQGSLVTVSS VL: EILLTQSPATLSLSPGERATLSCRASQSVGRYMAWYQQRPGQAPRLLIYDASIRATGIPARFSGSGSGTDFTLTISSLQTEDFAIYYCQQRSSWPPLTFGGGTKVEIKR",> 300 ng/mL,4.9 nM,0.00121 s⁻¹,245000 M⁻¹ s⁻¹,–,–,–,4.9 nM,0.00121 s⁻¹,245000 M⁻¹ s⁻¹,–,–,–,–,–,–
"2F10 human anti-CMV antibody (antibody, V domains shown, Recombinant human IgG, gamma heavy and kappa light chain, made by transient transfection of 293 cells; also called mAb A-2F10) VH: QVHLVESGGGVVQPGRALRLSCAATGFTFSNHGIHWVRQAPGKGLEWLAVISSDGDDDRYADSVKGRFSVSRDNSKNTVHLQMNGLRPDDTAIYFCARDGRCGEPKCYSGLPDYWGRGTLVTVSS VL: EIVLTQSPATLSLSPGDRATLSCRASQSVGGYLAWYQQKPGQAPRLLLYDASNRATGIPARFSGSGSGTDFTLTISSLEPEDFALYYCLQRNTWPPLTFGGGTKVEIKR",> 300 ng/mL,1.98 nM,0.00111 s⁻¹,562000 M⁻¹ s⁻¹,–,–,–,–,–,–,1.98 nM,0.00111 s⁻¹,562000 M⁻¹ s⁻¹,–,–,–
"4P12 human anti-CMV antibody (antibody, V domains shown, Recombinant human IgG, gamma heavy and kappa light chain; also called mAb D-4P12) VH: QVQLVESGGGVIQPGRSLRLSCVASKFIFSNHGIHWVRQAPGKGLEWVAVISKDGTNAHYADSVRGRFSISRDNSKDTVFLEMRSLRPEDTAVYYCAREGRCIEENCYSGQIDYWGQGSLVTVSS VL: EILLTQSPATLSLSPGERATLSCRASQSVGRYMAWYQQRPGQAPRLLIYDASIRATGIPARFSGSGSGTDFTLTISSLQPEDFAIYYCQQRSSWPPLTFGGGTKVEIKR",> 300 ng/mL,10.9 nM,0.0019 s⁻¹,175000 M⁻¹ s⁻¹,–,–,–,–,–,–,–,–,–,10.9 nM,0.0019 s⁻¹,175000 M⁻¹ s⁻¹
